In patent publication US20250066499A1 (SUNSHINE GUOJIAN PHARMACEUTICAL SHANGHAI, published 2025):
Numbering of substitutions follows the chain as printed.

Experiments:
Experiment in all cases: ELISA; decline multiple of EC50 against CD73-ND
CD73-ND-T183A = biological target: T1, CD73-ND-T183A (human, UniProt P21589 27-317)
T1 construct: Alanine mutant of CD73-ND
T1 sequence: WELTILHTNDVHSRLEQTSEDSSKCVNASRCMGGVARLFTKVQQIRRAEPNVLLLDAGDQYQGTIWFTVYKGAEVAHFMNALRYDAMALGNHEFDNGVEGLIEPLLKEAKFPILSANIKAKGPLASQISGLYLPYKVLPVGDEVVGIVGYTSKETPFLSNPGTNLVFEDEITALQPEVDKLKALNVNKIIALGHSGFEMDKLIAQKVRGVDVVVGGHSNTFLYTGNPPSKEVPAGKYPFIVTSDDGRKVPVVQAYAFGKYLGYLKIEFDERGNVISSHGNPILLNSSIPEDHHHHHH
Procedure: (§1) The ELISA plates were coated with SA protein diluted to 1.5 μg/mL in coating buffer (50 mM carbonate coating buffer, pH 9.6) and incubated overnight at 4° C. The supernatant was discarded, and the plates were washed three times with PBST. Then, 5% skimmed milk powder prepared with PBS was added for blocking and the plates were incubated for 2 h at 37° C. After washing the plates once with PBST, CD73-biotin protein (prepared by biotinylating CD73-His protein according to the EZ-Link NHS-Biotin Reagent instructions) was diluted to 0.5 μg/mL and added at 100 μL/well for incubation at room temperature for 1 h. The plates were washed three times with PBST, and the prepared murine-derived monoclonal antibodies against human CD73 were serially diluted with 1% BSA buffer prepared with PBST and added to the ELISA plates at 100 μl/well. The plates were incubated at 37° C. for 1 h. After washing the plates three times with PBST, HRP-labeled goat anti-mouse IgG secondary antibody was added and the plates were incubated for 30 min at 37° C. After washing the plates three times with PBST, the residual droplets were patted dry on absorbent paper as much as possible. Then, 100 μl of TMB color developing solution was added to each well, and the plates were incubated in the dark at room temperature for 5 min for color development. Subsequently, 50 μl of 2M H₂SO₄ stop solution was added to each well to terminate the substrate reaction. The OD values were read at 450 nm using a multimode microplate reader to analyze the binding ability of the tested antibodies to the target antigen human CD73-His.
(§2) Referring to the experimental method in Example 3, the affinity of 48A11-HuV33 for various mutant proteins of CD73-ND was determined. The SA protein was diluted to 1 μg/mL for coating the ELISA plates, and the biotinylated CD73 protein (CD73-biotin) was used at a concentration of 0.1 μg/mL.

CD73-ND-N185A = biological target: T2, CD73-ND-N185A (human, UniProt P21589 27-317)
T2 construct: Alanine mutant of CD73-ND
T2 sequence: T1 sequence with A183T, N185A
Procedure: as §1, §2

CD73-ND-L181A = biological target: T3, CD73-ND-L181A (human, UniProt P21589 27-317)
T3 construct: Alanine mutant of CD73-ND
T3 sequence: T1 sequence with L181A, A183T
Procedure: as §1, §2

CD73-ND-K182A = biological target: T4, CD73-ND-K182A (human, UniProt P21589 27-317)
T4 construct: Alanine mutant of CD73-ND
T4 sequence: T1 sequence with K182A, A183T
Procedure: as §1, §2

CD73-ND-K180A = biological target: T5, CD73-ND-K180A (human, UniProt P21589 27-317)
T5 construct: Alanine mutant of CD73-ND
T5 sequence: T1 sequence with K180A, A183T
Procedure: as §1, §2

CD73-ND-V144A = biological target: T6, CD73-ND-V144A (human, UniProt P21589 27-317)
T6 construct: Alanine mutant of CD73-ND
T6 sequence: T1 sequence with V144A, A183T
Procedure: as §1, §2

B1: 48A11-HuV33 (antibody, human IgG4, V domains shown)
VH: QVQLVQSGAEVKKPGASVKVSCKASGYTFTSYWMHWVRQAPGQGLEWIGEINPSIGRTNYNEKFKSRVTLTRDTSTSTAYMELSSLRSEDTAVYYCARRVYGTMDYWGQGTLVTVSS
VL: DIQMTQSPSSLSASVGDRVTITCKASQDINSYLSWFQQKPGKSPKLLIYRANIWVDGVPSRFSGSGSGQDYTFTISSLQPEDIATYYCLQYDELYTFGQGTKVEIK
notes: Humanized
CD73-ND-T183A
  Ratio(EC50): 1.4 fold
CD73-ND-N185A
  Ratio(EC50): 1.6 fold
CD73-ND-L181A
  Ratio(EC50): 1.9 fold
CD73-ND-K182A
  Ratio(EC50): 1 fold
CD73-ND-K180A
  Ratio(EC50): 2.7 fold
CD73-ND-V144A
  Ratio(EC50): 2.5 fold
